Test results as given in the RNAGym collection of RNA variant scans (doi:10.7554/elife.80360).

B1: HDV Ribozyme (parent)
chain: GGCCGGCAUGGUCCCAGCCUCCUCGCUGGCGCCGGCUGGGCAACAUUCCGAGGGGACCGUCCCCUCGGUAAUGGCGAAUGGGACCCA

Variants of: B1
Assay: self-cleavage, relative activity (ratio to wild type); higher = more cleavage; co-transcriptional

Point of comparison: C14A U69G, self-cleavage 0.665. Against it:
- C14A C19U — lower, 0.182
- C14A C19G — lower, 0
- C13U G82C — lower, 0.277
- C13U G82U — lower, 0.359
- C14A U46C — lower, 0.237
- C14A U46A — lower, 0.199
- C13U U20G — lower, 0.135
- C13U U20C — lower, 0.0978
- C13U C22U — lower, 0.193
- C13U A70U — lower, 0.342
- C13U A70C — lower, 0.453
- C13G G74A — lower, 0.0405
- C13G G74U — lower, 0.0386
- C13U A43G — lower, 0.525
- C13G U37G — lower, 0
- C13U C21A — lower, 0.192
- C13U C21G — lower, 0.115
- C14A C62U — lower, 0.623
- C14A C62G — lower, 0.582
- C14A C62A — higher, 1.06
- C13U A83C — lower, 0.344
- C14A U79G — lower, 0.575
- C14A U79A — lower, 0.369
- C14A U79C — lower, 0.173
- C14G — higher, 0.724
- C14A — higher, 0.761
- C13G G76U — lower, 0.104
- C13G U69C — lower, 0.111
- C13G U47C — lower, 0
- C13G U47G — lower, 0.151
- C13G U47A — lower, 0
- C14A A56C — lower, 0.539
- C14A A56G — lower, 0.57
- C14A A77G — higher, 0.755
- C13U U46A — lower, 0.219
- C13U U46C — lower, 0.138
- C14A C15A — lower, 0.582
- C14A C15G — lower, 0.138
- C14A G17A — lower, 0
- C14A A42C — lower, 0.0369
- C14A A42G — lower, 0.277
- C14A G68U — lower, 0.462
- C14A G68C — lower, 0.388
- C14A U20G — lower, 0
- C13U C18A — lower, 0.0652
- C14A G54C — lower, 0.536
- C13U A77U — lower, 0.155
- C13U A77G — lower, 0.399
- C13U U69G — higher, 0.7
- C13U U69A — higher, 0.8
- C14A U47A — lower, 0.639
- C13U A71U — lower, 0.494
- C13U A71G — lower, 0.429
- C13U C19G — lower, 0.138
- C13G C62G — lower, 0.158
- C13U U72A — lower, 0.128
- C13U U72G — lower, 0.266
- C13U U72C — lower, 0.252
- C13G U46A — lower, 0.0615
- C13G U60A — lower, 0.237
- C13G U60C — lower, 0
- C14A A16C — higher, 0.755
- C13G G67C — lower, 0.0665
- C14A A51G — higher, 0.755
- C14A A51U — higher, 0.779
- C14A C44G — lower, 0.346
- C14A C44U — lower, 0.166
- C14A U60A — lower, 0.499
- C13G G50C — lower, 0.0594
- C13G G50A — lower, 0.131
- C14A U65G — higher, 0.688
- C13U G25U — lower, 0
- C13U G25C — lower, 0.0723
- C13U C49G — lower, 0.426
- C13U C49U — lower, 0.256
- C13U U23A — lower, 0.571
- C14A G80U — lower, 0.273
- C14A G80A — lower, 0.565
- C14G A71U — lower, 0.529
- C14G A71G — higher, 0.712
- C14G A71C — lower, 0.208
- C13U G50A — lower, 0.439
- C13U G67A — lower, 0.572
- C13U G67C — lower, 0.374
- C13G C63A — lower, 0.0906
- C13U C57G — lower, 0.587
- C13U C86A — higher, 0.96
- C13G G28U — lower, 0
- C13G G73U — lower, 0.0361
- C13G G73A — lower, 0.0665
- C13G G73C — lower, 0.0396
- C13U U47C — lower, 0.489
- C13U U47G — higher, 0.95
- C14G A87U — higher, 0.895
- C14G A87C — higher, 0.793
- C14A G40A — higher, 0.706
- C13U C62U — lower, 0.589
- C13U C62A — lower, 0.489
- C13U C63G — lower, 0.233
- C13U C63U — higher, 0.696
- C13U C75G — lower, 0.0723
- C13U G28A — lower, 0.128
- C13U G76U — higher, 0.813
- C14G A70G — higher, 0.831
- C14G A70U — lower, 0.529
- C14G A70C — lower, 0.185
- C13G C57U — lower, 0.0426
- C13G C57G — lower, 0.107
- C13G C57A — lower, 0.0554
- C13G G29U — lower, 0.0415
- C13G G29A — lower, 0.0573
- C14A G52A — lower, 0.567
- C14A G52U — higher, 1.03
- C13U A42G — lower, 0.0755
- C13U G80C — lower, 0.0332
- C14A C33A — lower, 0.0959
- C14A C33U — lower, 0.587
- C14A C33G — lower, 0.213
- C14A C26A — higher, 0.966
- C14A C26G — higher, 0.831
- C13U A16G — higher, 0.978
- C13G C85G — lower, 0.0692
- C13U C26U — higher, 1.07
- C13U C26A — higher, 1.23
- C13U C26G — higher, 0.831
- C14A G59C — higher, 0.739
- C14A G59U — higher, 1.05
- C14A C22U — lower, 0.181
- C13U C44G — lower, 0.332
- C13U C44U — lower, 0.185
- C13U C44A — lower, 0.18
- C13U G73A — lower, 0.128
- C13U G73U — lower, 0.0875
- C13G U72C — lower, 0.0723
- C13G C44A — lower, 0.0449
- C13G C44U — lower, 0
- C13U C61G — higher, 0.684
- C13U C14U — lower, 0.308
- C14A G82A — lower, 0.415
- C14A C86A — higher, 0.886
- C13U C24A — lower, 0.381
- C13U C24G — lower, 0.0615
- C14G A16G — lower, 0.554
- C13U U27G — higher, 1.06
- C13U U27C — lower, 0.615
- C14A U23G — lower, 0.222
- C13U U79A — lower, 0.256
- C13G U79A — lower, 0
- C13G U79G — lower, 0.0755
- C14A A87G — lower, 0.659
- C13G C75G — lower, 0.128
- C13G C75U — lower, 0.0594
- C13G C75A — lower, 0
- C13U A78C — lower, 0.119
- C14A C84G — lower, 0.623
- C14A C85G — higher, 0.906
- C14A C85U — higher, 0.724
- C13G C66A — lower, 0.0339
- C13G C48A — lower, 0.26
- C13G C48G — lower, 0.0615
- C13U C84G — higher, 0.969
- C13U C84A — higher, 0.911
- C14A C21A — lower, 0.0652
- C14A C21G — lower, 0.141
- C14A U37G — lower, 0.104
- C14A U37A — lower, 0.0405
